The values that follow come from patent US20100255012A1.

Some targets named below: 2F8-HG CH3 mutant F273A; 2F8-HG-L236V; 2F8-HG-Y275A.
Holding throughout (test): non-covalent nano-electrospray mass spectrometry at 0.01-10 µM, value at low concentrations; self-association

Turning to 2F8-HG CH3 mutant F273A (antibody), the percentage molecules present as monomers with 2F8-HG CH3 mutant F273A turned out to be 100%. Turning to 2F8-HG-L236V (antibody), the percentage molecules present as monomers with 2F8-HG-L236V came out at 100%.

The substance 2F8-HG-Y275A (antibody) had a percentage molecules present as monomers in the test with 2F8-HG-Y275A of 100%.
